# Results from paper PMC8766848, “The Structural Basis of Babesia orientalis Lactate Dehydrogenase” (Frontiers in Cellular and Infection Microbiology, 2022).
# B1: Babesia orientalis lactate dehydrogenase (BoLDH) (Babesia orientalis) (protein)
# chain: MLKGFLSTMSPAVRRNKISLIGAGNIGGVMAYLAQLKELGDVVLFDIAPKLGEAKALDIMHANAIYDTAHKAIGTANYEDIADSDVCIITAGLAKLPNKKDEEWSRDDLVAPNSKIMFTIGDNIKKYAPNAFVICITNPLDVMVKMLLKATGFPKNKVVGMGGLLDSSRMCHYIADKLNVNPRYVHGSCIGGHGDSMIPLVNHVTVNGIPIQLFVERGDITQAELDKIAQRTIGSGMELVQLYGNGSAYFAPATAAIEMASAYLNDKKSVIVCSCYLEGEYGHSDVYLGTPAIIGANGIEKIITLKLSSEEQAKLDASVKEIMRLEALAG
# notes: full-length ORF (330 residues), N-terminal His6 tag, recombinant rBoLDH
# Tests used:
# [1] = substrate: CC(=O)c1ccc[n+]([C@@H]2O[C@H](COP(=O)([O-])OP(=O)(O)OC[C@H]3O[C@@H](n4cnc5c(N)ncnc54)[C@H](O)[C@@H]3O)[C@@H](O)[C@H]2O)c1; assay: enzyme kinetics (Km), used as synthetic cofactor, lactate to pyruvate; assay type: biochemical, Babesia orientalis; settings: varied: cofactor
# Excerpt: enzyme kinetics (Km), used as synthetic cofactor, lactate to pyruvate on Babesia orientalis lactate dehydrogenase (BoLDH) | BoLDH catalyzes the conversion of lactate to pyruvate using synthetic APAD^+ instead of NAD^+ as a cofactor
# purified protein [2] = substrate: CC(=O)C(=O)O; assay: purified protein; assay type: biochemical, Babesia orientalis; settings: NADH
# purified protein [3] = substrate: NC(=O)C1=CN([C@@H]2O[C@H](COP(=O)(O)OP(=O)(O)OC[C@H]3O[C@@H](n4cnc5c(N)ncnc54)[C@H](O)[C@@H]3O)[C@@H](O)[C@H]2O)C=CC1; assay: purified protein; assay type: biochemical, Babesia orientalis; settings: varied: cofactor
# purified protein [4] = substrate: C[C@H](O)C(=O)O; assay: purified protein; settings: NAD+
# purified protein [5] = substrate: NC(=O)c1ccc[n+]([C@@H]2O[C@H](COP(=O)([O-])OP(=O)(O)OC[C@H]3O[C@@H](n4cnc5c(N)ncnc54)[C@H](O)[C@@H]3O)[C@@H](O)[C@H]2O)c1; assay: purified protein; settings: varied: cofactor
protein,measurement,setting,value
B1,Km,[1],395 ± 49.9 µM
same,kcat,[1],62.3 s⁻¹
same,kcat/Km,[1],157000 M⁻¹ s⁻¹
same,Km,purified protein [2],102 ± 19.2 µM
same,kcat,purified protein [2],56.5 s⁻¹
same,kcat/Km,purified protein [2],554000 M⁻¹ s⁻¹
same,Km,purified protein [3],126 ± 19.9 µM
same,kcat,purified protein [3],115 s⁻¹
same,kcat/Km,purified protein [3],913000 M⁻¹ s⁻¹
same,Km,purified protein [4],166 ± 24.2 µM
same,kcat,purified protein [4],30.5 s⁻¹
same,kcat/Km,purified protein [4],184000 M⁻¹ s⁻¹
same,Km,purified protein [5],493 ± 69.2 µM
same,kcat,purified protein [5],21.5 s⁻¹
same,kcat/Km,purified protein [5],43600 M⁻¹ s⁻¹
